From paper PMC12350162 (Nature, 2025)

Molecular target: the molecule itself
Assay: cryo-EM structure; 1-MDa fraction of the Superose 6 Increase step, 1 mg/ml, frozen anaerobically at once after purification; Titan Krios G3i, K3; focused maps of Hdr(ABC)2 and of the Elp arm in two conformational states

B1: heterodisulfide reductase HdrABC (complex)
chain 1: MAEEKKETMEEPKIGVYVCHCGVNIGGVVDVEAVRDYAAKLPNVVIAKDYKYYCSDPGQLEIQKDIKELGINRVVVAACSPRLHEPTFRRCVEEAGLNQFLFEFANIREHDSWVHMDNPEGATEKAKDLVRMAVAKARLLEPLEASKVSVDDKALVIGGGVAGIQAALDLADMGFKTYMVEKRPSISGRMGQLDKTFPTLDCSMCILAPKMVDVGKHDNIELITYAEVKEVDGYIGNFKVKIEKKPRYIDEELCTGCGSCVEVCPIEMPNYFDEGIGMTKAVYIPFPQAVPLCATIDKDYCIECMLCDEVCERGAVKHDQEPEEIEIEVGTIIVATGYDAYDPTEKLEYGYGRHTNVITGLELERMINASGPTDGKVLKPSDGEKPKRVAFIHCVGSRDEQIGKPYCSRVCCMYIMKNAQLIKDKMPDTEVTLYYMDIRAFGKGFEEFYKRSQEKYGIKFIRGRPAEVIENPDLTLTVRSEDTLLGKVTEYDYDMVVLGVGLVPPEGAETLRQTIGLSKSADGFLMEAHPKLRPVDTLTDGVYLAGVAQGPKDIPDAVAQASGAAARAAIPMVKGEVEIEPIIAVTDSDVCGGCEVCIELCPFGAISIEEGHANVNVALCKGCGTCVAACPSGAMDQQHFKTEQIMAQIEAALNEPASK
chain 2: not shown
chain 3: MTLLQREENIIRKGNIDKEFSEKIKAAGGDSLEYCFQCGTCTGSCPSGRRTPYRVRQIIRKANVGLKDEIISDPTLWMCTTCYSCQERCPRKVKIVDVVKLARNEAAKAGFMAPAHKAVGSFVIKTGHGVPINDATMELRKAVGLGELPPTTHQFPEALEEVQKIIKATGFDQLIGYNWETGELE
notes: also called Hdr(ABC)2; (HdrABC)2
  stoichiometry N: 2
